Data on nine molecules can be found in publication PMC12413468 (Communications Biology, 2025).

Assay [1] addresses T1, His6-tagged OSR1 CCT domain (human OSR1 433–527) (human, UniProt O95747 433-527). Kind of assay: fluorescence polarisation.
Assay [2] addresses His6-tagged SPAK CCT domain (mouse SPAK 459–556) (mouse, UniProt Q9Z1W9 459-556). Put plainly: fluorescence polarisation.
Assay [3] deals with T1, His6-tagged OSR1 CCT domain (human OSR1 …). Kind of assay: peptide or protein array.

Where no end group is shown, it is not given here. [ ]: non-standard residue; d: D form. pS = N[C@@H](COP(=O)(O)O)C(=O)O

T1 sequence (O95747 433-527): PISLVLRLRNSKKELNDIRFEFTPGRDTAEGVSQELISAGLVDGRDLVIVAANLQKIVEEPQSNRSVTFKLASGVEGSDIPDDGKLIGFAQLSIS

B1: Wild-type human WNK4 peptide 1012–1024 (QLVGRFQVTSSKE) (peptide)
peptide: QLVGRFQVTSSKE
As to B1, the values for the Ki in assay [1] and in assay [2] were 12.9 µM and 7.2 µM, respectively.

B2: WNK4 peptide 1012–1024 with the −2 glycine changed to alanine (QLVARFQVTSSKE) (peptide)
peptide: QLVARFQVTSSKE
Turning to B2, the binding result in assay [1] and in assay [2] was “binds” in each case.

B3: WNK4 peptide 1012–1024 with the −2 glycine changed to serine (peptide)
peptide: QLVSRFQVTSSKE
Turning to B3, the binding result in assay [1] and in assay [2] was “binds” each time.

B4: WNK1 peptide 1253–1265 with phosphoserine at the +3 position (peptide)
peptide: SAGRRFIV[pS]PVPE
With B4, the “fold decrease in affinity against the unphosphorylated peptide” value in assay [1] and in assay [2] was about 2.5 fold in each case.

B5: WNK1 peptide 1253–1265 with the arginines replaced by histidine-histidine (peptide)
peptide: SAGHHFIVSPVPE
For B5, the “fold decrease in affinity against wild type” value in assay [1] and in assay [2] was about 7 fold in each case.

B6: WNK1 peptide 1253–1265 with the arginines replaced by histidine-alanine (peptide)
peptide: SAGHAFIVSPVPE
Turning to B6, the “fold decrease in affinity against wild type” value in assay [1] and in assay [2] was 11 fold each time.

B7: WNK1 peptide 1253–1265 with the arginines replaced by lysine-lysine (peptide)
peptide: SAGKKFIVSPVPE
For the molecule B7, the figures for the inhibition constant Ki in assay [1] and in assay [2] were 16.3 µM and 4.2 µM, respectively.

B8: Wild-type WNK4 1012–1024 base peptide on the peptide array (peptide)
peptide: Ac-QLVGRFQVTSSKE
modifications: also: covalently linked to the membrane
For B8, the binding result in assay [3] is “binds”.

B9: Wild-type human WNK1 peptide 1253–1265 (NH3+-SAGRRFIVSPVPE-COO-) (peptide)
peptide: H-SAGRRFIVSPVPE-OH
B9: the Ki in assay [1] was found to be 5.1 µM; in assay [2], 2.5 µM.
